Protein production data for 13 sequences are collected here from a protein production outcome set (Wang et al. 2014).

The nature of this data set: label from the status in PepcDB records.
For the sequence “MTFKRSLFFLLLLLSVATARAQIDVDRVITIGRNALYFNDYVVSIGYFNQVVGLRPWMAEPYFYRGIAKISLEDYTGAEADASACLQRNALIPKAYLLRGVARQNLGKIDSAIQDYRRGLELMPNDEGMLVNLTGVLTDSKRYAEAREGVAELLKFYPKSKQAHIALSAIELGEQDTVAAIRELNEVLRMDSLFAPAYSQMAMLHLKSKRNAEAMAALDKAIELEPSELSNYINRGVIRYQSNDLRGAMDDYSHVVRQKPNDKLARFNRALLRSYLGDVNNAIEDFDVVIRLEPENYHALYNRAILLTQINENRKAITDFDKVLGHYPDFVVGYYARSQAKKALGDTRGAERDYWRAFDIEKAAQSKTKKTKKSSSSTSTKETREDSDETIEKFNLLVVSEKSSEKRTRYSSRIRGRIQDNDVEVQPSPLFVLSYYEQSSSEEVPRVYYSEAIARFNDKKVLPKRLKPINREVALSQEQVAYHEQDITEISERTAGNADLCFRRALDYMLIQNLEQAIVDFDQAVELNKQFALAYFGRAIARAKLVEARQGASFIHQEAETVNAMTKALITTPRTNAMGVPAAAESPERKPAISDVDGELVMRDLNRTIELDPNFAYAYYNRAVLLARRGDTDAALSDYDRAIKAYPEFADAYFNRGLLLLSRGKAKEGIADLSRAGEYGLYKAYNIIKRMSTKS”, the protein production result is “failed”.
In the case of “MDSNWINCPSVFSSSSSSSRRCQSRSDLYLGGGYEDLEGEDDLKAEFICPFCAEDFDIVGLCCHIDEEHPVEAKNGVCPVCTKRNLCLFLDERFYVQRRRRLRRGGYSSTYLALKKELREANLQSLLGGSSSFTSSTNIDSDPLLSSFMFNSPSVNQSANKSATPVTVGNAATKVSIKESLKRDIQEAPLSGEDQEKAKKSEFVRGLLLSTMLEDDF”, the protein production entry is on record as “failed”.
Turning to “MSQPTPAVRTFQDLILALQQYWAEQGCVVLQPYDMEVGAGTFHTATFLRAIGPETWNAAYVQPSRRPTDGRYGENPNRLQHYYQFQVVLKPNPENFQELYLGSLKHVGLDPLVHDIRFVEDNWESPTLGAWGLGWEVWLNGMEVTQFTYFQQAGGIECYPVTGEITYGLERLAMYLQGVDSVYDLVWADGPFGKVTYGDVFHQNEVEQSTYNFEHANVEKLFELFDFYESEAKRLIELDQPLPLPSYEMVLKASHTFNLLDARRAISVTARQQYILRVRTLARSVAQAYLLARAKLGFPMATPDLRDEVLAKLEAAQ”, the protein production result is “failed”.
Next, “MQFIKRAHGEEQPYWPAGPFKIRLPFVHYRWELPEMIQGFFMFVVGLAMIPLLESYLGMPYEAALAFTFVAGVGYILPALLGVPLVPGWITPAIPVVLLYLKGFEPGPEAIRALFALQIEVAIIFLILGATRLGSKLVDVIPNSLKCGIIIGAGMAAMMGELKIGGRIDATPISLIVGSIISAYILFSLSFKNVINENSFARKIANFGMVPGMIIAMLVGWTVGEYPLPDIKWGITNPDFSLMWQYLPFTVGYPDWEIFLLAIPTALIAYVIAFGDILVGFTLVNRVDHIRKDEKIEENVDRVHLVTAIRNGFHAFLAPWPGLAGPLWTAAHATVAERYAMGRKSMESIYSGGGTFWMSGLLALFALPLVTLFKPVLPIALSLTLVLTAYICIMVGMEQLKNSTERGVAGIVAVTLAMPDPKSTMYAVCIGVILYFLIERPRLMGKHNSEDNIIFADETQEEVAVTNSNNT”: “failed”; “MQIKAGLIWMNGAFVPQEEAKTSVLSHALHYGTSVFEGIRAYETAKGPAIFRLKEHVKRFYNSAKVLRMEIPFAPEELEEAIKEVVRRNGYRSCYIRPLAWMGAKALGVNPLPNNPAEVMVAAWEWGAYLGEEAVRKGARLITSSWARFPANVMPGKAKVGGNYVNSALAKMEAVAAGADEALLLDEEGYVAEGSGENLFFVRDGVIYALEHSVNLEGITRDSVIRIAKDLGYEVQVVRATRDQLYMADEVFMTGTAAEVTPVSMIDWRPIGKGTAGPVALRLREVYLEAVTGRRPEYEGWLTYVNGQ”: “not failed”.
As for “MAEQHGDSPVPVELSVVGGFLIAVIVGMLFPADAMTRWMFHPAVVAGCCWAGQLWYVGRKLSVPPAAGNPWRYIFGMANTVTLLRGGLYAVVAGFLVVPATTDLAWVPAACYGVGVVLDKLDGTVARTVGEQTQLGTRLDMAFDTFGFVVAPLVAVFWGQLPVLYLSLSAARYAYVGGIRWRRYRDRPVFERPDSNLGKYLAGVQMVFITAALVPVVPTELVFRLTPVVLAPSLAVFLRDFLVASGRLPREWFDRQR”, the protein production result was “failed”.
Consider “MESVTFEDVAVEFIQEWALLDSARRSLCKYRMLDQCRTLASRGTPPCKPSCVSQLGQRAEPKATERGILRATGVAWESQLKPEELPSMQDLLEEASSRDMQMGPGLFLRMQLVPSIEERETPLTREDRPALQEPPWSLGCTLPLLSLLLPSCPEPPLVLLDSSSAPDRHLGSTLDTEARGIP”, for which the protein production entry is recorded as “failed”.
As to “MDKYPFLREAGSSFKDRDVTKMSDLIATWDGQDIKGPALIGVPLSKSSISHSGASFAPGTIRQALKHSSAYSAELGEHVVSELLYDLGDIDIHVTDIVKSHHHIFQTMHALLSDHPDWVPLILGGDNSISYSTIKAIAQTKGTTAVIQFDAHHDVRNTEDGGPTNGTPFRRLLDEEIIEGQHLIQLGIREFSNSQAYEAYAKKHNVNIHTMDMIREKGLIPTIKEILPVVQDKTDFIFISVDMDVLDQSHAPGCPAIGPGGLYTDELLEAVKYIAQQPNVAGIEIVEVDPTLDFRDMTSRAAAHVLLHALKGMKLSPFK”, the protein production result is recorded as “not failed”.
Regarding “YPLRKTQAVQSTQFDSRHSFVTKLKPYADKAARMLGVDSSLLIAQAALETGWGQKMVKNARGNSNNLFNIKADRSWQGDKVATQTLEYHNNVPVVEKAAFRSYASFDESFNDYVRFLENNPRYTNALDHGGNSERFIHGIHRAGYATDPQYADKVLRVKAQIDQMNL”, the protein production result is reported as “failed”.
For the sequence “MPFIYRRRVQFYETDAQGIVHHSNYFRYFEEARGEFLRSKGFPYSKMRDMGLEVVLLNAYCEYKKPLFYDDVFEVHLNLEELSRFTFTFSYIVFKEDIAVAKANTKHCMVKNGKIVSIPKEVLEVLKD”, the protein production result is “not failed”.
As for “MSLRVILFDLDGTLIDSAKDIALALEKTLKELGLEEYYPDNVTKYIGGGVRALLEKVLKDKFREEYVEVFRKHYLENPVVYTKPYPEIPYTLEALKSKGFKLAVVSNKLEELSKKILDILNLSGYFDLIVGGDTFGEKKPSPTPVLKTLEILGEEPEKALIVGDTDADIEAGKRAGTKTALALWGYVKLNSQIPDFTLSRPSDLVKLMDNHIVEFEGHHHHHH”, the entry is “not failed”; as for “DSTGKTKTAYDFSAGGISPDAPLVVLFHGLEGSSRSHYAVELMLAVRNRGWHGAVVHFRSCGGVANTAPVFYHLGDTAEIAFALDTLTARYREIYAVGVSLGGNAPAKYLGEQGKKALPHASAAVSAPVDAEAAGSRFDSGITRLLYTRYFLRTLIPKARSLQGFQTAFAAGCKTLGEFDDRFTAPLHGFADRHDYYRQTSCKPLLKHVAKPLLLLNAANDPFLPPEALPRADEASEAVTLFQPAHGGHAGFVSST”, “failed”; as for “MSNIDFDKYRILLVNSYFQSRNAKITRFWNRATTNAKDIFHGIRTRKEFFSKIIRDFQTEFGEDFIEYLAGGELIGGITNILPIYENKMGVMERSGHIIHKKSGYHLTPDILSEYLINDVFFDNTFLKHNIEELAKADNGVHILDILNSLLKVKDDREIYREATEKLLEMLNCLESDNEQKKRRIRAGIVVYYGFGNLNLVTAAIGEFWTDYGILDDGIDLQALGIFLGDISKLYEARICMERANEIFKNNGDKIGIATSLHNLGIILHLQGNYEEAMNKYNQSLKIDEELGERHRISMSLRFLGRIEYDKGNYDDAVKLYNQSLMIAEKLGDQSGIAKLLGELGIVLLHQGNYDEAIKLYNQSLMIAEKLGDQSGIAGTLYELGKVYLIQDNYGESIEVQKRSLKIKELLGDKYGIAHSLHALGVTHEVKKEYTFALLNYLEASSIYKELNSPYSKDVSKLITDLRDKMGNEQFNKACKEFGYVPPDNI”, “failed”.
